Source: patent US6407216 (Genentech, dated 2002)

How the values were obtained:
[1] = molecular target: T1, rat Smoothened (rSmo), Flag epitope tagged, expressed on transfected cells (rat, UniProt P97698 33-793); test: staining of transfected cells exposed to the ligand
T1 construct: residues 33-793 derived from that statement; Transiently expressed in COS-7 or 293 cells; co-immunoprecipitations were done from cell lysates; also called Flag tagged rSmo
Experimental: (§1) Binding assays were conducted to test binding between cells expressing rSmo or dSmo and (1) epitope tagged SHH-N, (2) an IgG-SHH-N chimera, and (3) an epitope tagged Desert HH. For visualization of SHH binding, COS-7 cells (Genentech, Inc.) transiently expressing rSmo or mPatched (murine Patched) were exposed to epitope tagged SHH-N (2 hours at 4° C.), washed 4 times with PBS, then fixed and stained with a cy3-conjugated anti-human IgG (Jackson ImmunoResearch) (for IgG-SHH-N) or anti-Flag M2 antibody (Kodak/IBI) (for Flag-tagged SHH-N).

[2] = molecular target: T2, Drosophila Smoothened (dSmo), epitope tagged, expressed on transfected cells (Drosophila, UniProt P91682 32-1036); test: as above
T2 construct: cDNA described in Alcedo et al; also called dros.smo
T2 sequence: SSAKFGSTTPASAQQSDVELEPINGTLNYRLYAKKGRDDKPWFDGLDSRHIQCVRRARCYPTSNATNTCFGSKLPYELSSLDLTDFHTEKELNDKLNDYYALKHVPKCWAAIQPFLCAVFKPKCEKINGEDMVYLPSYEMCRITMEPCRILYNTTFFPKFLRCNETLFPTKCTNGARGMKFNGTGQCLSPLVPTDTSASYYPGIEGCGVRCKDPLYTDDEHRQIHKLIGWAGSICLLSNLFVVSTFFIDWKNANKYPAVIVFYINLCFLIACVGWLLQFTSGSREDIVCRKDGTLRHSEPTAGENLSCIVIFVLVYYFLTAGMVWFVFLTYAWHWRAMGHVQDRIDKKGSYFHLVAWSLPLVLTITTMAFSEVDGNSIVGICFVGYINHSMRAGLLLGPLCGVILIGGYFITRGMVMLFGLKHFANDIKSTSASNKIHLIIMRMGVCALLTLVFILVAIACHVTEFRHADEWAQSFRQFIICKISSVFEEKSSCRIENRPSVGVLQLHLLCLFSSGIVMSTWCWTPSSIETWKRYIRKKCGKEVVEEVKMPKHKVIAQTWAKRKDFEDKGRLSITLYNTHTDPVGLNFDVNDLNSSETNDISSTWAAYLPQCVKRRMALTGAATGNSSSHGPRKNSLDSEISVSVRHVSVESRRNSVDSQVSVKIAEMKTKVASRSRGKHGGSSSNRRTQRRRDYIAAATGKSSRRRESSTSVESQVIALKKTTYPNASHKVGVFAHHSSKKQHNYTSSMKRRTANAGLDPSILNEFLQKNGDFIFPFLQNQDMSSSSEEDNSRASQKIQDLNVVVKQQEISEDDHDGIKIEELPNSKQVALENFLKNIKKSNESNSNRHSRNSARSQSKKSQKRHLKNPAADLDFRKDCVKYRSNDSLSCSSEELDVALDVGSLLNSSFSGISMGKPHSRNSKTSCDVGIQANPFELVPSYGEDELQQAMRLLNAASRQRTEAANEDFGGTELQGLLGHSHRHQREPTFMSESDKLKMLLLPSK
Experimental: as §1

T1 sequence (P97698 33-793): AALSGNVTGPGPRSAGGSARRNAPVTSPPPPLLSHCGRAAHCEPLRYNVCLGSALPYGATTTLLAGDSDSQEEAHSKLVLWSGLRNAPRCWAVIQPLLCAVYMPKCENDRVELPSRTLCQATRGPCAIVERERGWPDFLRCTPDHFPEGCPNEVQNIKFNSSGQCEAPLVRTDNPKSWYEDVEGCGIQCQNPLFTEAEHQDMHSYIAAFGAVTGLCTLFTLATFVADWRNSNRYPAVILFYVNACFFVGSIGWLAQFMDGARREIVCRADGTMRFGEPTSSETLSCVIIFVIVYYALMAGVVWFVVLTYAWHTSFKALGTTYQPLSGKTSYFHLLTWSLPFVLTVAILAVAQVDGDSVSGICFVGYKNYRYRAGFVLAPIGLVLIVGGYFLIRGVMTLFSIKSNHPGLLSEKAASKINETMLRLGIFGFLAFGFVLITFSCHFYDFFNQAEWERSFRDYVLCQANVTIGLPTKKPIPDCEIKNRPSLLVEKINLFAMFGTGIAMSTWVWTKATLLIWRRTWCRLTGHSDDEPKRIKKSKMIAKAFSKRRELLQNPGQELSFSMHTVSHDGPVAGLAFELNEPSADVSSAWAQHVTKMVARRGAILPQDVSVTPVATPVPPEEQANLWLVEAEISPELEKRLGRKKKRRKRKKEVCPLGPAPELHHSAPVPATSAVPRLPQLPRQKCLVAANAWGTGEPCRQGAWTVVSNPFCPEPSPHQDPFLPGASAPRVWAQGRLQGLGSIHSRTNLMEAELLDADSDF

binding result [1]: no binding
binding result [2]: no binding
B1: epitope tagged Desert HH (ligand, not shown: small tags and cut ends)
chain: not shown
